From patent US6210929A, “Fusion protein comprising a furin derivative or a derivative of a furin analogue and a heterologous sequence” (Baxter Aktiengesellschaft, priority 1995, dated 2001)

Tests used:
pro-vWF = assay: Co-expression of pro-vWF and r-furin in CHO cells, Western blot of cell culture supernatants; format: cell-based, human
Text: The expression plasmid for rvWF, phAct-vWF (FIG. 1), was co-transfected with the selection marker plasmid pSV-rdhfr (FIG. 1) in dhfr-deficient CHO cells, the efficiently pro-rvWF-expressing clone CHO-rvWF was selected under selection conditions, and this clone was sub-cloned to stability (Fischer et al., 1994. Febs Lett. 351:345-349). For a further analysis and for rvWF expression and function studies, the cells were at first washed with PBS several times, and subsequently, unless indicated otherwise, incubated in selection medium without serum, with a regular 24 hour medium exchange.
Approximately 40% of the rvWF secreted into the cell supernatant of CHO-rvWF was unprocessed (FIG. 2 II A). To increase the efficiency of the propeptide cleavage, the r-furin expression vector pSV-r-furink in the following was co-transfected with the selection marker plasmid pUCSV-neo into the CHO-rvWF cell clone. Under selection conditions (500 μg G418/ml), clones were identified which express r-furin in addition to rvWF (CHO-rvWF/r-furin; FIGS. 2 I A, B).
The detection of rvWF in the cell culture supernatant was effected by means of Western blot analysis (FIGS. 2 I A and II A). For this, 10 μl of reduced cell culture supernatant were separated by means of SDS-PAGE (Lammli, Nature 227:680-685, 1970), and subsequently the proteins were transferred to nitrocellulose membranes by means of the BioRad Mini Trans-Blot System (BioRad Laboratories, Richmond, Calif., USA). The Protoblot-System from Promega (Madison, Wis., USA) was used to visualize rvWF secreted into the cell culture supernatant. Rabbit anti-vWF serum (Order No. A 082) from Dakopatts (Glostrup, Denmark) was used as the antibody for vWF binding.
The detection of r-furin in the cell culture supernatant was also effected by means of Western blot analysis (FIGS. 2 I B and II B). r-Furin was visualized by using the anti-h-furin murine monoclonal antibody MON 148 (van Duijnhoven et al., Hybridoma 11: 71-86, 1992) and, as the second antibody, anti-murine IgG alkaline phosphatase conjugated goat serum (Sigma A 4656).

pro-rvWF = assay: In vitro cleavage of pro-rvWF by r-furin or fusion protein, Western blot analysis; format: biochemical, human; settings: for in vitro processing of pro-rvWF in mixed supernatants: CHO-rvWF/r-furin and CHO-rvWF supernatants 1:1, 37° C.
Experimental: CHO-rvWF, CHO-rvWF/r-furin, CHO-rvWF and CHO (at a ration of 1:1), as well as CHO-rvWF and CHO-rvWF/r-furin (at a ration of 1:1) were mixed accordingly and incubated at 37° C.
Aliquots of the reaction formulations were tested for processed vWF by means of Western blot analysis immediately before incubation and after mixing of the cell culture supernatants, respectively; further aliquots were taken at time intervals of 24 hours each and assayed.
For this, 20 ml of serum-free cell culture supernatant of CHO-rvWF cells, adjusted to 2 mM imidazole, were passed over the column. […] Samples of the cell culture supernatant which were not subjected to a protease treatment served as the controls.
The negative control, an unmanipulated CHO cell culture supernatant (without r-furinΔCys-spacer-10xHis) was processed in an analogous manner on the Ni^2+ -NTA matrix.
Aliquots of the reaction mixtures were taken at the beginning of the test as well as at various points of time and frozen.
The Fractogel EMD® tentacle gel was loaded with Ni^2+ ions according to the manufacturer's instructions and equilibrated with fresh serum-free cell culture medium. Subsequently, the column was loaded with serum-free CHO-r-furinΔCys-spacer-10xHis supernatant. Washing steps were effected by serum-free cell culture medium, containing increasing imidazol concentrations up to 40 mM. Subsequently, the pro-protein substrate was guided over the column as serum-free CHO supernatant.

Boc-Arg-Val-Arg-Arg-AMC = assay: AMC peptide substrate test (fluorogenic substrate test) of furin or fusion protein activity; format: biochemical; settings: for Intensity of the fluorescent emission at 438 nm: supernatants of permanent CHO cell clones, 2 hours of incubation, 30° C.
Experimental: By the action of furin, AMC (7-amino-4-methyl coumarin) is cleaved from the substrate. […] The fluorescent spectroscopic detection of the furin or fusion protein activity was effected at 30° C. in stirred quartz cells in a test volume of 2 ml. 1.7 ml of 100 mM HEPES buffer (pH 7.4, 1 mM CaCl2 and 1 mM 2-mercaptoethanol) were mixed with 0.1 ml of a substrate solution (final substrate concentration in the test: 0.1 mM) and 0.2 ml of the sample. The fluorescence was excited at a wave length of 380 nm. After 2 hours of incubation, the fluorescent emission was measured at 438 nm (Table 1).
The supernatants of various permanent CHO-r-furinΔTM-His cell clones and, as the controls, of CHO-rvWF/r-furin cells and CHO cells were subjected to the AMC peptide substrate test. The intensity of the fluorescent emission at 438 nm reflects the activity.
The activity of CHO-r-furinΔTM-His cells from cell culture supernatants before their binding to the column matrix, the individual washing fractions as well as the eluate were determined by means of AMC peptide substrate test.
The influence of imidazole on the furin activity was determined.
For this, 1 ml of Ni^2 +-NTA matrix (Quiagen), equilibrated in serum-free cell culture medium was loaded at 4° C. with 10 ml of imidazole-free CHO-r-furinΔCys-spacer-10xHis cell culture supernatant, and, as the negative control, with conditioned medium of non-manipulated CHO cells, respectively. Then the matrix was washed three times at room temperature with serum-free cell culture medium, and subsequently the fluorogenic substrate was contacted at 30° C. with immobilized r-furinΔCys-spacer-10xHis. As the positive control, CHO-r-furinΔCys-spacer-10xHis cell culture supernatant was tested for its ability to react fluorogenic substrate in solution.

rFX = assay: FX activity by FX-Coatest-Kit (RVV activation, chromogenic substrate S-2337); format: biochemical, human
Experimental: For this, 50 μl of each supernatant were admixed with 50 μl of FX-deficient human plasma, and according to the protocol of the producer, rFX was reacted to rFXa with snake venom (RVV) in the presence of CaCl2 ; rFXa subsequently hydrolyses the chromogenic substrate (S-2337) and leads to the liberation of the yellow-coloured paranitroaniline. Since the amount of rFXa and the colour intensity are proportional to each other, the amount of rFX activatable to rFXa/ml cell culture supernatant can be determined with the help of a calibration straight line, interpolated from values of the plasma dilution series.

single-chain rFX = assay: In vitro cleavage of the propeptide and processing of single-chain rFX, Western blot analysis; format: biochemical, human
Experimental: Aliquots each of the reactions were tested for processed rFX by means of Western blot analysis prior to incubation (t=0) and after various incubation periods (t=2, 4, 6 hours) (FIG. 10). The detection of rFX in the cell culture supernatants was effected by means of anti-human FX antiserum (FIG. 10A) and of a monoclonal antibody specific to the light chain of FX (FIG. 10B).

CHO-rvWF/r-furin: supernatant or cells of CHO clone co-expressing rvWF and complete recombinant human furin (r-furin), used as source of r-furin
processing of pro-vWF in co-expressing cells (pro-vWF; medium exchange every 8 hours, serum-free): significant amounts of pro-rvWF
processing of pro-vWF in co-expressing cells (pro-vWF; serum-free 24 hour cell culture supernatants): only the completely processed rvWF
processing of pro-vWF in co-expressing cells (pro-vWF; serum-free 24 hour cell culture supernatants, listed as CHO rvWF/r-furin): completely processed
in vitro processing of pro-rvWF in mixed supernatants (pro-rvWF; 48 h and 96 h): completely processed vWF
in vitro processing of pro-rvWF in mixed supernatants (pro-rvWF; after 24 hours): only a slight portion of unprocessed pro-vWF
Intensity of the fluorescent emission at 438 nm (Boc-Arg-Val-Arg-Arg-AMC): 444

B1: r-furinΔTM-His: furin with transmembrane and cytoplasmatic part (amino acids 708 to 794) deleted, six histidine residues appended after amino acid 707; SEQ.ID.NO. 9 (protein)
chain: MELRPWLLWVVAATGTLVLLAADAQGQKVFTNTWAVRIPGGPAVANSVARKHGFLNLGQIFGDYYHFWHRGVTKRSLSPHRPRHSRLQREPQVQWLEQQVAKRRTKRDVYQEPTDPKFPQQWYLSGVTQRDLNVKAAWAQGYTGHGIVVSILDDGIEKNHPDLAGNYDPGASFDVNDQDPDPQPRYTQMNDNRHGTRCAGEVAAVANNGVCGVGVAYNARIGGVRMLDGEVTDAVEARSLGLNPNHIHIYSASWGPEDDGKTVDGPARLAEEAFFRGVSQGRGGLGSIFVWASGNGGREHDSCNCDGYTNSIYTLSISSATQFGNVPWYSEACSSTLATTYSSGNQNEKQIVTTDLRQKCTESHTGTSASAPLAAGIIALTLEANKNLTWRDMQHLVVQTSKPAHLNANDWATNGVGRKVSHSYGYGLLDAGAMVALAQNWTTVAPQRKCIIDILTEPKDIGKRLEVRKTVTACLGEPNHITRLEHAQARLTLSYNRRGDLAIHLVSPMGTRSTLLAARPHDYSADGFNDWAFMTTHSWDEDPSGEWVLEIENTSEANNYGTLTKFTLVLYGTAPEGLPVPPESSGCKTLTSSQACVVCEEGFSLHQKSCVQHCPPGFAPQVLDTHYSTENDVETIRASVCAPCHASCATCQGPALTDCLSCPSHASLDPVEQTCSRQSQSSRESPPQQQPPRLPPEVEAGQRLRAGHHHHHH
modifications: His6 tag
processing of rpro-vWF on immobilized fusion protein (pro-rvWF; Ni2+ column, CHO-rvWF supernatant with 2 mM imidazole passed over, column eluate): only completely processed vWF
Activity (rFX; t = 6 hours, supernatants 1:1, 37° C.): 344 mU/ml
% Functional FX (rFX; t = 6 hours, from activity and ELISA antigen): 43%
unspecific proteolytic activity (OD values) in mixture of CHO and CHO-r-furinΔTM-His supernatants (rFX; without rFX, % of the proteolytic activity): less than 7%
INTENSITY (AMC peptide substrate test) (Boc-Arg-Val-Arg-Arg-AMC; 1st washing fraction of Ni2+-NTA column): 340
INTENSITY (AMC peptide substrate test) (Boc-Arg-Val-Arg-Arg-AMC; 2nd washing fraction of Ni2+-NTA column): 280
INTENSITY (AMC peptide substrate test) (Boc-Arg-Val-Arg-Arg-AMC; 3rd washing fraction of Ni2+-NTA column): 121
INTENSITY (AMC peptide substrate test) (Boc-Arg-Val-Arg-Arg-AMC; eluate from Ni2+-NTA matrix (buffer A containing 200 mM imidazole)): 2820
INTENSITY (AMC peptide substrate test) (Boc-Arg-Val-Arg-Arg-AMC; roller supernatant before binding to the Ni2+-NTA matrix): 2664
Intensity of the fluorescent emission at 438 nm (Boc-Arg-Val-Arg-Arg-AMC): 2524

B2: CHO-r-furinΔCys-spacer-His: r-furinΔCys (to amino acid 585) with spacer Ala-Ala-Gly-Gly-Ala-Ala and six histidine residues; SEQ.ID.NO. 21 (protein)
chain: MELRPWLLWVVAATGTLVLLAADAQGQKVFTNTWAVRIPGGPAVANSVARKHGFLNLGQIFGDYYHFWHRGVTKRSLSPHRPRHSRLQREPQVQWLEQQVAKRRTKRDVYQEPTDPKFPQQWYLSGVTQRDLNVKAAWAQGYTGHGIVVSILDDGIEKNHPDLAGNYDPGASFDVNDQDPDPQPRYTQMNDNRHGTRCAGEVAAVANNGVCGVGVAYNARIGGVRMLDGEVTDAVEARSLGLNPNHIHIYSASWGPEDDGKTVDGPARLAEEAFFRGVSQGRGGLGSIFVWASGNGGREHDSCNCDGYTNSIYTLSISSATQFGNVPWYSEACSSTLATTYSSGNQNEKQIVTTDLRQKCTESHTGTSASAPLAAGIIALTLEANKNLTWRDMQHLVVQTSKPAHLNANDWATNGVGRKVSHSYGYGLLDAGAMVALAQNWTTVAPQRKCIIDILTEPKDIGKRLEVRKTVTACLGEPNHITRLEHAQARLTLSYNRRGDLAIHLVSPMGTRSTLLAARPHDYSADGFNDWAFMTTHSWDEDPSGEWVLEIENTSEANNYGTLTKFTLVLYGTAPEGLPVPPESSAAGGAAHHHHHH
modifications: spacer and His6 tag
notes: r-furinΔCys (to amino acid 585) with spacer Ala-Ala-Gly-Gly-Ala-Ala and six histidine residues; 21
processing of rFX (single-chain rFX): demonstrated
